According to PMC11729909, “FOXP1 phosphorylation antagonizes its O-GlcNAcylation in regulating ATR activation in response to replication stress” (The EMBO Journal, 2024):

Biological target: T1, His-tagged OGT (human, UniProt O15294 1-1046)
T1 construct: OGT, human, full length; Vector pet28a; also called His-OGT; pet28a-OGT; source: E. coli, purified
T1 sequence (looked up): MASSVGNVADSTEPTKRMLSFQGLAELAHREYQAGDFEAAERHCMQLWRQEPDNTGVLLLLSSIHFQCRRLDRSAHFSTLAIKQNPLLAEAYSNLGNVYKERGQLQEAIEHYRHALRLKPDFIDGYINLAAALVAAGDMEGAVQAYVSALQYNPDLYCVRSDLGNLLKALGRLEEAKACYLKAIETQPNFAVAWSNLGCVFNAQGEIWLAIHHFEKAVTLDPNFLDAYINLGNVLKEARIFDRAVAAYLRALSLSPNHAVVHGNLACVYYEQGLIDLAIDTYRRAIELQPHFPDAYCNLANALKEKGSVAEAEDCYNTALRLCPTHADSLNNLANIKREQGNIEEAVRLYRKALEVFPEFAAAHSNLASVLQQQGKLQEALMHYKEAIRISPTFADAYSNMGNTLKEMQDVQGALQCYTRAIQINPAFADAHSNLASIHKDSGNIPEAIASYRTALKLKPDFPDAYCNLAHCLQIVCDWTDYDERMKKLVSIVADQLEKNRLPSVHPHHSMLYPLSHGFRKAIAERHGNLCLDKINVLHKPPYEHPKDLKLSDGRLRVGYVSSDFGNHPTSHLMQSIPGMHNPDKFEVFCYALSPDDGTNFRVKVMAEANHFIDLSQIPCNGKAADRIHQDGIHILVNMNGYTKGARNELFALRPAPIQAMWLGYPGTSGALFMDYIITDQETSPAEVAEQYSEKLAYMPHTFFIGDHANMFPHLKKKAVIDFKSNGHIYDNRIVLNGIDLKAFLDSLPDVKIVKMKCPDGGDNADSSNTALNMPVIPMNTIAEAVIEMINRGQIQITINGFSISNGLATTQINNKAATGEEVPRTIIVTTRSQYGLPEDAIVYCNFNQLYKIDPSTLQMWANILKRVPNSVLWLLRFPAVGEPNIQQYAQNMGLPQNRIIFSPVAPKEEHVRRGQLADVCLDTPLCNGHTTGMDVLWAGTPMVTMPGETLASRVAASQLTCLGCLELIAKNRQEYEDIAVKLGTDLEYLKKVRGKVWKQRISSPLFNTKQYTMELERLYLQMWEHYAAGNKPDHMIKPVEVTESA
Experiment: pull-down; GST pull-down: His-tagged OGT incubated with wild-type GST-tagged FOXP1 or its mutant lacking AA 556–610, glutathione beads, immunoblot
Details: both partners purified

B1: GST-tagged FOXP1 (wild type, full length) (natural protein, human, UniProt Q9H334 1-677, looked up)
chain: MMQESGTETKSNGSAIQNGSGGSNHLLECGGLREGRSNGETPAVDIGAADLAHAQQQQQQALQVARQLLLQQQQQQQVSGLKSPKRNDKQPALQVPVSVAMMTPQVITPQQMQQILQQQVLSPQQLQVLLQQQQALMLQQQQLQEFYKKQQEQLQLQLLQQQHAGKQPKEQQQVATQQLAFQQQLLQMQQLQQQHLLSLQRQGLLTIQPGQPALPLQPLAQGMIPTELQQLWKEVTSAHTAEETTGNNHSSLDLTTTCVSSSAPSKTSLIMNPHASTNGQLSVHTPKRESLSHEEHPHSHPLYGHGVCKWPGCEAVCEDFQSFLKHLNSEHALDDRSTAQCRVQMQVVQQLELQLAKDKERLQAMMTHLHVKSTEPKAAPQPLNLVSSVTLSKSASEASPQSLPHTPTTPTAPLTPVTQGPSVITTTSMHTVGPIRRRYSDKYNVPISSADIAQNQEFYKNAEVRPPFTYASLIRQAILESPEKQLTLNEIYNWFTRMFAYFRRNAATWKNAVRHNLSLHKCFVRVENVKGAVWTVDEVEFQKRRPQKISGNPSLIKNMQSSHAYCTPLNAALQASMAENSIPLYTTASMGNPTLGNLASAIREELNGAMEHTNSNESDSSPGRSPMQAVHPVHVKEEPLDPEEAEGPLSLVTTANHSPDFDHDRDYEDEPVNEDME
notes: FOXP1, human, full length; Vector pGEX-4T-1; also called GST-FOXP1; pGEX-4T-1-FOXP1; source: E. coli, purified
binding result: binds
